Article PMC3107735

Tests used:
human thrombin = human thrombin (human, UniProt P00734;P00734 328-363;364-622); experiment: ITC
alpha-thrombin = alpha-thrombin (bovine, UniProt P00735;P00735 318-366;367-625); experiment: ITC

B1: thrombin-binding DNA aptamer (15-mer, Bock et al.) (structured_DNA)
DNA: GGTTGGTGTGGTTGG
- binding result (human thrombin): binds
- Kd (alpha-thrombin): 111 nM
